Article PMC8695382 (Nature, 2021)

Tests used:
Assay in all cases: cryo-EM structure; yeast replisome–SCF^Dia2 complexes assembled in the absence of DNA (off DNA); 3.9 Å
Details in all cases: both partners purified
[1] = molecular target: T1, Mcm7 (Saccharomyces cerevisiae, UniProt P38132 1-845)
T1 construct: Mcm7, S. cerevisiae; Subunit of m2; source: purified as part of CMG
T1 sequence: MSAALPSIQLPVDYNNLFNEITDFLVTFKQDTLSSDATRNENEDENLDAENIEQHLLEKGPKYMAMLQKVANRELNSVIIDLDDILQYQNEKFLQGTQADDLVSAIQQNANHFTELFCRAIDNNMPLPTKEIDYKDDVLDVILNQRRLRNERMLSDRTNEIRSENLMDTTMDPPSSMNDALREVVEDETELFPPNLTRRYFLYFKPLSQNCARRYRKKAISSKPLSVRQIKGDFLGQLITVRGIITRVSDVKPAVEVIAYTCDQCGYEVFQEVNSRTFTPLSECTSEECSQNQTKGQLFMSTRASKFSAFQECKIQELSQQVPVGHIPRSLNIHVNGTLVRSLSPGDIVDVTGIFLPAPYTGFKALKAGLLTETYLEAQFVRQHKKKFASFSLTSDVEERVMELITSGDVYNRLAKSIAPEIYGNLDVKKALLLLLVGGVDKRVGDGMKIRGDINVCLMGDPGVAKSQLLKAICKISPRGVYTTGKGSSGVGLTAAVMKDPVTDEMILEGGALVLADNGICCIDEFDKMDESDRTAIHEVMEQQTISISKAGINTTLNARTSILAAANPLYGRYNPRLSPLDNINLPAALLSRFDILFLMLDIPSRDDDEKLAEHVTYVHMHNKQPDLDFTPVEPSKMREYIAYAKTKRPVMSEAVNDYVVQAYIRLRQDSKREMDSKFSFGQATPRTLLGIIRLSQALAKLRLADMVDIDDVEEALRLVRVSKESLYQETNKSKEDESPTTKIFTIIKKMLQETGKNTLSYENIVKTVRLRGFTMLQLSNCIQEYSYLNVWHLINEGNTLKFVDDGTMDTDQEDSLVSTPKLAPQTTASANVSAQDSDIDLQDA

[2] = molecular target: T2, Mcm5 (Saccharomyces cerevisiae, UniProt P29496 1-775)
T2 construct: Mcm5, S. cerevisiae; Subunit of m2; source: purified as part of CMG
T2 sequence: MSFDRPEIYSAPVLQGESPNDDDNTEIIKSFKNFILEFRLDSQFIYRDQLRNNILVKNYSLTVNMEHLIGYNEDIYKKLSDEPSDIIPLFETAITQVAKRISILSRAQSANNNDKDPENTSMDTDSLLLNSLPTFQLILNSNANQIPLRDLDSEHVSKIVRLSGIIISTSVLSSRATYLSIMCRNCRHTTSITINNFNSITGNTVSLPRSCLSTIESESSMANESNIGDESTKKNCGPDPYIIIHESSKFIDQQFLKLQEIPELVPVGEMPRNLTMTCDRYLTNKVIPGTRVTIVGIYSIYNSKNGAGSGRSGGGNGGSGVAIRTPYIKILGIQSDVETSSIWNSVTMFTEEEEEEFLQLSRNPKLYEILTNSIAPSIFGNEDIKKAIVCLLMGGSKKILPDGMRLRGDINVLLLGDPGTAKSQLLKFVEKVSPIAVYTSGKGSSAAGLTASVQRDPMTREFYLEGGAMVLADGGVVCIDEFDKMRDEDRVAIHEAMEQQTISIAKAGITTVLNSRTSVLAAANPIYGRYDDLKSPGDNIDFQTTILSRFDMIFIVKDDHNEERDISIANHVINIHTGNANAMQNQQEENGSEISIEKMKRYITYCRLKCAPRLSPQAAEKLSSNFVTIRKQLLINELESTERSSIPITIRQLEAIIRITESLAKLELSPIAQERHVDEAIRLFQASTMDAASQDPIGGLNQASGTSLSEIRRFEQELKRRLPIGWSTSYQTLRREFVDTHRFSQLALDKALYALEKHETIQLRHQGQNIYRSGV

[3] = molecular target: T3, Mcm3 (Saccharomyces cerevisiae, UniProt P24279 1-971)
T3 construct: Mcm3, S. cerevisiae; Subunit of m2; source: purified as part of CMG
T3 sequence (P24279 whole entry): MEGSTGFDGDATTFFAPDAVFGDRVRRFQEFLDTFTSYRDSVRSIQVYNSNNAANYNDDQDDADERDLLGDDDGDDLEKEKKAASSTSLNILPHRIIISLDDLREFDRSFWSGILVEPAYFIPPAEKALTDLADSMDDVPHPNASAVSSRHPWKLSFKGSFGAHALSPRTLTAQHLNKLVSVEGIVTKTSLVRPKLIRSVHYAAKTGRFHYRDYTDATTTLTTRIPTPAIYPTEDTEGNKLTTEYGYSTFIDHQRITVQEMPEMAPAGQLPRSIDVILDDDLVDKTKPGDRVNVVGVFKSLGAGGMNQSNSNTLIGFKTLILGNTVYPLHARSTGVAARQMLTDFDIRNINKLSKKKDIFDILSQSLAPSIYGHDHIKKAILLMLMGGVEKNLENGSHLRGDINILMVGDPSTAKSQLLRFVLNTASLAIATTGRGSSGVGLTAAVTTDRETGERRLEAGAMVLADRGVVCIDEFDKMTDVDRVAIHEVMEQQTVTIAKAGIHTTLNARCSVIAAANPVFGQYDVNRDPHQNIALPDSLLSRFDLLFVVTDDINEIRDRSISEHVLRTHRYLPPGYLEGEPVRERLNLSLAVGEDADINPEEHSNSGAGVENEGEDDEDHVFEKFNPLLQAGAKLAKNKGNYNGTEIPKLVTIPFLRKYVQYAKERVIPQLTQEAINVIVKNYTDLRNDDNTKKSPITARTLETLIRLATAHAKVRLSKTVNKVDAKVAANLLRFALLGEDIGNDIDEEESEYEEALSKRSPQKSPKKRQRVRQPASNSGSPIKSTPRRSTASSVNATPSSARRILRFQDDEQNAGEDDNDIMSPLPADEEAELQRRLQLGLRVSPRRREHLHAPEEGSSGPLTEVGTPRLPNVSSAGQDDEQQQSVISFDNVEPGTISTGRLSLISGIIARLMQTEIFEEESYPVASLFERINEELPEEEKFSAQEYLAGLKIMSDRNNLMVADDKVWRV

- binding result [1]: binds
- binding result [2]: binds
- binding result [3]: binds
B1: Dia2 (natural protein, Saccharomyces cerevisiae)
chain: MSSPGNSGVAIDSTVLKAIELGTRLFKSGEYLQAKRIFTNALRVCDSYSQEQIMRIRNAYQLDTARPDNKRLYHPRYIKILDNICACYEKLNDLKSCLDVSQRLLKLEPGNIKCYIRCTRTLIKLKDWKRAYKTCSRGLQLCNNDSNHLRQQKQFIKNNMVQKQDGKRSYIDPLEETKIAKKKKNNNVLESLPKKKIKGSTKKTDLVGNLPIEILPIIFQRFTTKELVTLSLVCNKWRDKILYHLDCFQEFNLAPINFKNFVKFMDFLQQNFTRTYRKYILSQVKVSSRITSEELRITQLLFSKMPKCINIERLILSMPTLTTTQIFKLMVRGGTDFFTRLLELSLMITYRPDKQHELEILQTCPLLKKIELIFVNSLVPIFDGNNSVGRDGSFNVMARHTNMQISTADNDEQGIVEEKVIYSELEKITLICDKKKIKNFPLCRALLRGQFPLLQKLTITGVTFPMNNQDIMNFQWLLNFPDLKELWIEDNDNCELSKFLQLLKFSNVWKNLEKLTFRENKLYPIVNLDEDQPVTNDDEVPSMLFYKENLQNLEKLDLMGTSISGSALTRLCEQEYLDGRKLRSLNIGNCPNIQFPNNHAHTARMILDVNAVLKRLSKLEEINLSHLSSLNDSTMKSFIINVPFLENLKRLDISHNFEITGISIYEFLKKFQMDHDNEAGGQPLAYLNIDGCSQVSHITVNMIRAQNLVTQVDCVYERDVWRKFGINSYSYS
notes: Dia2, F-box protein, S. cerevisiae; model built for F-box (211–247), LRRs (248–716) and C-terminal tail (717–732); N-terminal TPR domain not visible; Subunit of m1 as it stands in the cryo-EM samples; also called Dia2^LRR (its leucine-rich repeat domain); source: purified as part of SCF^Dia2
